The values that follow come from publication PMC3407216.

Test [1] addresses MMP-2–cleaved fibronectin (human).
Test [2] deals with Matrix metalloproteinase-2 (human (endogenous in tumor cells)) (UniProt P08253).
UniProt P08253, sequence (P08253 30-660): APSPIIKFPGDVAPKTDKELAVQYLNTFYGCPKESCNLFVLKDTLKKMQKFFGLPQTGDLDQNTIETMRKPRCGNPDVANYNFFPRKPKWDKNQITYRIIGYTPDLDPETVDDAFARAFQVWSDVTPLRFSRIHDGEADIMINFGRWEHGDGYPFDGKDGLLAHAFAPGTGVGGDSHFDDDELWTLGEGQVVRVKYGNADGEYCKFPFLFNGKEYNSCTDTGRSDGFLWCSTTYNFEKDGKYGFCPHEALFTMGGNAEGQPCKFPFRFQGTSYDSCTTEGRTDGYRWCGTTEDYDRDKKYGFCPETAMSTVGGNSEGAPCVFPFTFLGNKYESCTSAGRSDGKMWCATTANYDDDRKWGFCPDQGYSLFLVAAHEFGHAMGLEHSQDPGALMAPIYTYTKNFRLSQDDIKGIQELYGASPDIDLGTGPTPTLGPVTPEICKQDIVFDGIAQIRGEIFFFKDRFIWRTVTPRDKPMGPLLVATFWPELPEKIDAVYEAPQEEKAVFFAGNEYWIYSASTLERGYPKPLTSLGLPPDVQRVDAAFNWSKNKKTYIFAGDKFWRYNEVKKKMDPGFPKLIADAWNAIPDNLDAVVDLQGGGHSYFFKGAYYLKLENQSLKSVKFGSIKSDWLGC

αvβ3 integrin, sequence (P05106 whole entry, looked up): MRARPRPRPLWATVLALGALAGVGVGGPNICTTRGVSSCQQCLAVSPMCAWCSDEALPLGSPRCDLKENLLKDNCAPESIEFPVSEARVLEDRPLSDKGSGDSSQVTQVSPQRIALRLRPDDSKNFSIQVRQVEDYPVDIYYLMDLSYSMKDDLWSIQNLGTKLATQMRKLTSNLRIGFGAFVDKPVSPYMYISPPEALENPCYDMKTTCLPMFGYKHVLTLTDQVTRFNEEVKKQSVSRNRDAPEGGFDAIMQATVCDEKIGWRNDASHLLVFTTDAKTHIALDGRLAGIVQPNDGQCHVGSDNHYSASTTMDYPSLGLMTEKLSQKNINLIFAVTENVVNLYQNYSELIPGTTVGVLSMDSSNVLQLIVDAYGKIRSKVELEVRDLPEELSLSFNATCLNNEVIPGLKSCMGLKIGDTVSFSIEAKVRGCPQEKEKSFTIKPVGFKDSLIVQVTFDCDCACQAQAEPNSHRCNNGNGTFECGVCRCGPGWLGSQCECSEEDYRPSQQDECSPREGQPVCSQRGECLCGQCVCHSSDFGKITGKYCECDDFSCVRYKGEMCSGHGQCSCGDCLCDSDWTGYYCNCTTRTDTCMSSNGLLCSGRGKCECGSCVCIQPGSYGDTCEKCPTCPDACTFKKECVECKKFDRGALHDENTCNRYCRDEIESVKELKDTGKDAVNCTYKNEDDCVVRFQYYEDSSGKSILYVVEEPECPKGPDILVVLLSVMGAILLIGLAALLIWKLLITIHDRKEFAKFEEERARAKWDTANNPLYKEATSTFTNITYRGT

On to “αvβ3 integrin (from UniProt P05106 27-788) (receptor)”, for which the adhesion of M21 melanoma cells (30 min) to plates coated with MMP-2–cleaved fibronectin compared with full-length fibronectin; no obvious changes with M21-L cells that lack αvβ3 integrin in test [1] was over 34%. For the same substance, in test [2], the static adhesion of fluorescently stained A375 cells to wells coated with APMA-activated recombinant human MMP-2, compared with cells blocked with RGD peptides was over 59%.
